Measurements taken from a protein production outcome set (Wang et al. 2014).

assay: label from the status in PepcDB records

Row | Sequence | protein production
1 | MHLNTLAGRSYNDLMQYPVFPWILADYDSEEVDLTNPKTFRNLAKPMGAQTDERLAQYKKRYKDWEDPNGETPAYHYGTHYSSAMIVASYLVRMEPFTQIFLRLQGGHFDLADRMFHSVREAWYSASKHNMADVKELIPEFFYLPEFLFNSNNFDLGCKQNGTKLGDVILPPWAKGDPREFIRVHREALECDYVSAHLHEWIDLIFGYKQQGPAAVEAVNVFHHLFYEGQVDIYNINDPLKETATIGFINNFGQIPKQLFKKPHPPKRVRSRLNGDNAGISVLPGSTSDKIFFHHLDNLRPSLTPVKELKEPVGQIVCTDKGILAVEQNKVLIPPTWNKTFAWGYADLSCRLGTYESDKAMTVYECLSEWGQILCAICPNPKLVITGGTSTVVCVWEMGTSKEKAKTVTLKQALLGHTDTVTCATASLAYHIIVSGSRDRTCIIWDLNKLSFLTQLRGHRAPVSALCINELTGDIVSCAGTYIHVWSINGNPIVSVNTFTGRSQQIICCCMSEMNEWDTQNVIVTGHSDGVVRFWRMEFLQVPETPAPEPAEVLEMQGPLSHPHPNPIEVRNYSRLKPGYRWERQLVFRSKPTMHTAFDRKDNAHPAEVTALGISKDHSRILVGDSRGRVFSWSVSDQPGRSAADHWVKDEGGDSCSGCSVRFSLTERRHHCRNCGQLFCQKCSRFQSEIKRLKISSPVRVCQNCYYNLQHERGSEDGPRNC | failed
2 | MHMKTVRQERLKSIVRILERSKEPVSGAQLAEELSVSRQVIVQDIAYLRSLGYNIVATPRGYVLAGGKSGVSRLVAVKHAPEEIKEELLCVVRNGGRIVDVIVEHPVYGEIRGIIDVSSEEEVLKFVNLMEMAKTEPLLTLSGGVHLHTIEAPDEETMERIMRELKKKGFLIEEG | not failed
3 | MHNAGKQVAAPLETPMPAATAALLAERADHPLYVASVEKGMRVLEAFDAARDSLSLTDIVQLTGMGKSAAQRFTHTWEALGYLAKDPQSRRYRLGPKVVELSYYFLRSDHLVSLAAPHLVALREHCGLAVNMSVLSGDDMIYLLRLPSRQLTLVEMLPGRRMPAWSNSAGRMLLSQRDDASVRDLLARAAPQLYTPRTQTDPQALLAEIRQAREDGYAITQDQVLLNQMGVATLLRDERRQPLAAISVTAAADEYPRARLVAEIVPQMLKAAYAICGA | failed
4 | MHNKKWDLRIICAHAFTILIWGSAFPAIRMGLASYTPEHLTLLRLLIASFILLLFSFIYKLRIPDLKDIPAIFIFGALGFTFYHIALNYGEKTVNAGSASLIVSVTPIVTAILASIFLNEKMKLNGWIGGGISFIGIALISFSQGDAIQLNSGGFFILLAAISESLYFVFQTSYLKKYGFLPFTIYTILSSTVCMLIFFPGMYTEILAAPLEVNMSVIYLGLFPTVLPYIALAYIISHSGAAEATSSLYLTPVTACFVAWIWLGEVPTFVSIIGGGITILGILIVHIPVLRKEKHRNLANNQSV | failed
5 | MHPCHRPSFAFLRHPLSIVVCLALLAGCSTSPLQFPEPLLAKSEKAKATEGVALVSDDGKKAPASLAVPKTEFSGTPTSPRSIVGGVVDRMDKAILDDKKADISLNVEDVQLAAFINEVFGNILGLPFEIESALKEKTDRVTVRLEQPQTAQMVYEVARQVLVNYGVEILHQGDIYRFQIKQVGLSPDEPPILISGEARPSVPIAYRPVFQFVALHSVDPKDVIPWLNSAYEKSGLSVMADGARSGLMLKGMSSIVNQATEAVRLLDQPFMRGRHSLRIDPAFVSAADMASQLKTVIAAQGYSVGIGEAVGSIMLVPLESSNGLIVFANDGQLLDLVREWAQQVDRAPMAVAAGIGEEKEGLFFYEARNTRVTELAKSLRALVSGFAGEGAYGITSGLQSSASKRSGGGRRAGDDGAAPAVAPLLQAAGAAALVGGDGANGLLGGLAAGISGSGTIVEDENRNAILFRGAARTWQQMQGLLREMDKPARQVLIEVTVASVSLSDTQELGVEWEMLNGSFNSATSTGSKGSAGKGGFNYVINTAGGNTAAIQAMADNQRVRVLATPRILVKSGEQANINVGRDIPIPTAQVNDDSTTAGSTNLRNEIAYRSTGTILNVAPVVYSDSRVDLTVSQELSDSGGSSGGGGKASGGGISAPEISRTSLETSLTLKSGGSVLMGGLIRDNITDSNAGVPLLKDIPGIGFLFGRQKAVKTREEVIMLIQPYVLESDADAREVTEKLHAMLSKTLACSDRPGACRME | failed
6 | MHPFRWQRSRQRSSALSFLKKAFYQIPVIGWLVKDAAHGSPEAPYFFLFNAVVVGAALIYTFGYPLVITVAVAGAFAGIAGLVVLTAGDAFDKRAKQPATDVRRAKTATVRPLKKAA | failed
7 | MHPPIVMSTLPPSVAPPIGTAPQRHSLVSLRRLSWLRWALLAGQALLLVSCESLAGIALPYKPLLFLFAVQTVFNVFTVARLHWHTRHGTAPSDAELMVQMMVDLTALSAILFYTGGATNPFVSFYLPGLAIASAILPWRLVVTLAAYALACYSMLLLEYIPLDLHNPDNAVNYHLAGMWLNFVASAVMIAFFVARLSNALRQRDAQLNEARELLLREARVEALNDQAAAVAHEIGTPLATLAVIAGELRADAENTNRSDTPVADYQADLRTMEQQLELCRSILARLRADHETLAPQRIDAWLAPFVERWQLRHPQASLQAGAAPDAAAQAVDTARISQILTIALDNAARSQQAAGHDHRQGPPLRLDIAREADALVYRVTDHGHGLPPGLRARLGESPVASAHGGQGIGLYLAQSAARQLGGQISWHDNPAGGTVLELRLPLTAASERAIAAQPDFQP | failed
8 | MHPVKALKQGVKNGTMPIIARFYGIIIKMFFNEHLPPHFHALYGEYNAIFNINTLEMIEGDMPLRARKLVVEWAENHQKELEIMWETKEFKQLPGLELEHHHHHH | not failed
9 | MHRHVVTKVLPYTPDQLFELVGDVDAYPKFVPWITGMRTWNGRVDGAVSTVDAEAQVGFSFLREKFATRVRRDKDARSIDVSLLYGPFKRLNNGWRFMPEGDATRVEFVIEFAFKSALLDAMLAANVDRAAGKLIACFEARAQQLHGALEHHHHHH | not failed
10 | MHSIRNFFCGQWSSSVRLDEKTVIITGANTGIGKETARDLARRGARVVMACRDLEKAEAARRELMDNSGNQNIVVKKLDLADTKSIKAFAELINKEEKQVNILINNAGIMMCPYSKTADGFEMQFGVNHLGHFLLIYLLLDLLKKSTPSRIVNVASVAHTWSGIHLEDINSEKVYSPRRAYGQSKLANILCTRSLAKRLQGSGVNVYSLHPGVVQSELFRNLSKPAQIAFKVFSPFTKTTSQGAQTTIYCAIEPELDRESGGYYSDCGPAQCSREASDDEMAQKLWELSCQMLGIIWD | failed
11 | MHSNSWMSCKAVDNAEKEALLLQLQADADGPRRRCEIRERSLGQAVMLALLSLLLVLLGGWLASLPSAWQLRSAQLWFWLPGALMLGAGLVGLAAAEALRRRHGQQVLALTPDTLQFANAPDPTPWVCFDGFELEQRYLSLGLVFSVIAGSRAPALAPACFKSLAAPHAWPVAAGMRVRLWLFNPMLDGQRLDFQALTDLLYAYLNAAQARSTLGQLFPEVQRVGATQ | failed
12 | MHSQTLRLASYNIQKCVGLDLRRQPRRILQVLDAMGARIAVLQEADKRLPPRPAALPHFVLEEAGWQVVDLGGAGSLGWHGNAVIWKGAGITQLASAHHDLPGFEPRGAVRVEFDTPIGPLRVLGLHLGLLPASRRDQIVHLAHDLERLPPMPTVWAGDFNEWSRQPVLDHLAPMLRFLPARPSFPAPRPLGALDRIAHSPELSAVAHGVFAERPAPIASDHLPVWADLTRPV | failed
13 | MHVFGLPAIGALAGTQAYWVSLVDVYAAQARIAATGMYPSGRVKRAFPGCCRGYWGDAGGSVRAGWISAAWPYGRFDRSGRPVGGAQPQVIWCEVGCGMGEHELMIFGNKDLPQRTPERPLVTFAVFAYNQESFIRDAIEGAFAQTYEPLEIILSDDCSDDETFLIMQQMAAAYRGPHKVVVRKNHENLGVLGHVLTVAKMAAGKYMVVAAGDDISFPDRTERQVSFLERESDRVVVVSSHDVIFDENCDLPNQKQDSNLRLRKQWYKNNNSWFHGGTACYRLGVLRELPLPTSRLLYEDMALINIFKAMGYSSGFMEIPTIRRRFHQLNLGMQRPERNPWDEERRILRRIEHAADVMDYAADVIEGEGGKAAKLRVQAAIMRKYAKWPDLNFVDRFLLFFESLKAGYMRKASAKVLLGKDVVLDIRSLWC | failed
14 | MHVQEWLDTVPAAAVYAVVGLVIGLESLGIPLPGEIILVSAALLSSQHGGIDPLVLGACASAGAVIGDSIGYAIGRKGGRPLLAWLGGKFPRHFGEGHVATAERSFQKWGMWAVFFGRFVALLRIFAGPLAGVLRMPYWKFLIANVLGGIVWAGGTTAVIYYVGVVAEDWLKRFSWLGLVVAVLIGIASMLIVKRRAGKAQQTPEPVAAGE | failed
15 | MHVVQGAKTMWNKIQVVSHGRGGLRSQCCETTMIGHPTPTPAQDSETQPSPQEHIPEKKPLPKEIGGRDGPEPTRYGDWEKNGRCIDFLEHHHHHH | failed
16 | MHYTETGSPRLAILIDADNTFRFINVIDELLEEISKYGDVSIRRIYGDWTETKMQRWKEILPKYAIQPIQQYANTKGKNSTDSALIIDAMDLLYTAPLDGFCIVSSDSDFTRLATRLRESGKQVYGFGEQKTPDSLIAACNKFIYIEILSKEKLSDPPEPTPISTSETSASVESKPPAAPSTPLSPAALAPGIRKSSRELAMDTRLISLIRSAISALSDDDGYAHIGEIKKYMIKNFPAFDSRNYGYSKFSELIKATGLFDIDKDKQRIKDKRKK | failed
17 | MIAHLLLSLALLLTAAKLGGVLAVRLGQPAVLGELVAGIALGALPALGLHGAAGLAHDPVLEALAELGVILLLFEVGLSTRLAELVKVGASAFLVACIGVVAPMALGYGVGAWLLPGASPLAHLFLGAALSATSVGITARVLRDMGRIGSPAGQIILGAAVIDDVLGLLVLAVMVGLAGGGGDGAGTWTVLALVGAKAVGFLGAALVAGRWAAPRLFAVAARLRAQGVLFTLALAVCLALSWAASAVELAPIVGAFAAGLVLEGVPFAELSGGEERLEERLTPLAAVLVPLFFVRMGLAVDLGALGTGSLALAGALSVAAIVGKQACALAVVTPGVDRLAVGLGMIPRGEVGLIFANIGLSLTAGGRPLLGPGAFAAIVAMVLVTTLVTPPLLRWRMGSAPAAAAVRPGPGVRAA | failed
18 | MIAHPVVGIVGIAGAYGRWLAQFLRTRMGLEVIGVDPALPDGLDDATLVARADVLIFSAPIRHTAALIERYAALAGARAAEQLWLDVTSIKQAPVAAMLASQAEVVGLHPMTAPPKSPTLKGRVMVVCRARVQRWSGWVDALCSALQAECVYATPEHHDRVMALVQAMVHATHLAQAGTLRDYAPLLGELRTLMPYRSASFELDTAVIARILSLNPSIYEDIQFGNPYVAEMLDRLLAQLQELRGLVVQGDDAARLRFRQAFLDANAQALQGDSLAAGNYTYERVGYLLADLTEPLTLSVYLPEDQPGSLRVLLHVFEQHGVNLSSIHSSRTPGGELHFRMGFEPESDRAALGRAAAQIDADRIGRVLERVDRER | failed
19 | MICLTSKMMAFLPYFLELKGKRVNIQALINDRVSQAIEAAGAPAGTPALVRQSAKAQFGDYQANGIMGAAKQLGTNPREFAQKVLDVLNLEGIASKTEIAGPGFINIFLSEEFLAAQAEAALADAR | failed
20 | MICTEALQRISFSSDLGQSDKAPPPVIEPSGLIRRDETLLDSSNSDFEFHISNSFDPGDSSPADEIFADGMILPFHVTAASTVPKRLYKYELPPITSSLSPSPLSPQPLPTKHSEKETNGRASGANSDSEAEKSSKSFWSFKRSSSLNCDIKKSLICSFPRLTRSNSTGSVTNSKRAMLRDVNNHRPSSRSSCCNAYQFRPQKHTGKKGEGGGSFSVIPVLNGPSTFGLGSILRHSNSKDKTKTKKKKNKK | failed
21 | MIDLRSDTVTKPTEEMRKAMAQAEVGDDVYGEDPTINELERLAAETFGKEAALFVPSGTMGNQVSIMAHTQRGDEVILEADSHIFWYEVGAMAVLSGVMPHPVPGKNGAMDPDDVRKAIRPRNIHFPRTSLIAIENTHNRSGGRVVPLENIKEICTIAKEHGINVHIDGARIFNASIASGVPVKEYAGYADSVMFCLSKGLCAPVGSVVVGDRDFIERARKARKMLGGGMRQAGVLAAAGIIALTKMVDRLKEDHENARFLALKLKEIGYSVNPEDVKTNMVILRTDNLKVNAHGFIEALRNSGVLANAVSDTEIRLVTHKDVSRNDIEEALNIFEKLFRKFS | not failed
